From US20230002486A1 (SPARX THERAPEUTICS, published 2023)
Where two headings read alike, the source gives them in different places.

Tests used:
[1] = target: T1, PD-L1 (programmed death-ligand 1), recombinant protein (human, UniProt Q9NZQ7 19-238, limits assumed); assay: direct ELISA on coated human PD-L1
T1 construct: the other ELISAs print only 'PD-L1'; also called human PDL1; CD274

mouse PDL1 = mouse PDL1 (mouse, UniProt Q9EP73 19-238, limits assumed); assay: ELISA, coated mouse PDL1 (FIG. 30B)
Sequence of mouse PDL1 (Q9EP73 19-238 limits assumed): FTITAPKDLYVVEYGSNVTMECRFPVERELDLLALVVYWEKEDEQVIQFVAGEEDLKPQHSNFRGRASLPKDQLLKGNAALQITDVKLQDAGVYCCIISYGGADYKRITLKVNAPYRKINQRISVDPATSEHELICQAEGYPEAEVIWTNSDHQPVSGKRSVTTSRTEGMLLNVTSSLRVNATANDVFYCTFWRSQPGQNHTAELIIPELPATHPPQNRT

[2] = target: T1, PD-L1 (programmed death-ligand 1), …; assay: ELISA, coated human PDL1 (FIG. 30B)
[3] = target: claudin 18.2 (CLDN 18.2), recombinant protein (human); assay: direct ELISA on coated CLDN 18.2
Sequence of claudin 18.2 (CLDN 18.2), recombinant protein (human) (chain, as listed by the source limits assumed): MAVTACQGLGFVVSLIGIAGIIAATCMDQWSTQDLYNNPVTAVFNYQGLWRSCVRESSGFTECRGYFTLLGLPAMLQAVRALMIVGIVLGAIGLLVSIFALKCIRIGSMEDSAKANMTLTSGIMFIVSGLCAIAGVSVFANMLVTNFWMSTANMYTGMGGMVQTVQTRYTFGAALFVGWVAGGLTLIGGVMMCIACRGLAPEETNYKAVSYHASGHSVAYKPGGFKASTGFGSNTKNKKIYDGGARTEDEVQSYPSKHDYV

[4] = target: claudin 18.2 (CLDN 18.2), recombinant protein (human); assay: ELISA, coated CLDN18.2 (FIG. 30A)
[5] = target: T1, PD-L1 (programmed death-ligand 1), …; assay: direct ELISA, coated PD-L1 (FIG. 28B)
[6] = target: claudin 18.2 (CLDN 18.2), recombinant protein (human); assay: direct ELISA, coated CLDN 18.2 (FIG. 28A)
[7] = target: claudin 18.2 (CLDN 18.2), recombinant protein (human); assay: competitive phage ELISA, phage-displayed Fab, coated and soluble CLDN 18.2; design: unit not given here
Description: (§1) After 15 min incubation and washing, anti-M13 antibody/HRP conjugate was added and incubated for 30 min, then developed with TMB for 5-10 min and quenched with 1 M phosphoric acid. Binding signal was analyzed by the plate reader.
(§2) To identify clones with improved solubility, CDR light chain residue 55 (LC55E or L2) was mutated back to Glu on clones 9O47, 5C9oap-oae, 9O24-oae, 9O36-oae, 9O45-oae, and 9O47-oae.

[8] = target: claudin 18.2 (CLDN 18.2), recombinant protein (human); assay: competitive phage ELISA: phage-displayed Fab pre-incubated with a dilution series of soluble CLDN 18.2 (axis: GFP-CLDN 18.2, nM), then added to plate-coated CLDN 18.2
Description: as §1, §2

[9] = target: claudin 18.2 (CLDN 18.2), recombinant protein (human); assay: as above; remark: listed apart in the source
Description: as §1

T1 sequence (Q9NZQ7 19-238 limits assumed): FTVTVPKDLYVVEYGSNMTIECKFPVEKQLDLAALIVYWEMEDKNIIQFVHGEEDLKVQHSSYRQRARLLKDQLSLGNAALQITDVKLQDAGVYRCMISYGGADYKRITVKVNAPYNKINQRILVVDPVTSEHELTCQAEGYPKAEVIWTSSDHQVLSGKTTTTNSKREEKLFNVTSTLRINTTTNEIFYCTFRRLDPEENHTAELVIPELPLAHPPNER

B1: OB12A4, two-chain anti-CLDN 18.2/anti-PD-L1 (12A4) bispecific antibody (bispecific antibody)
chain 1: not shown
chain 2: EIVLTQSPATLSLSPGERATLSCRASQSVSSYLAWYQQKPGQAPRLLIYDASNRATGIPARFSGSGSGTDFTLTISSLEPEDFAVYYCQQRSNWPTFGQGTKVEIKSGGGGEVQLVESGGGLVQPGGSLRLSCAVSGYTFSMNWVRQAPGKGLEWVAWINMYTGEPTYADDFKGRFTISRDDSKNTLYLQMNSLRAEDTAVYYCARLYNGNSLDYWGQGTLVTVSSGGGGSEPKSSDKTHTCPPCPAPELLGGPSVFLFPPKPKDTLMISRTPEVTCVVVDVSHEDPEVKFNWYVDGVEVHNAKTKPREEQYNSTYRVVSVLTVLHQDWLNGKEYKCKVSNKALPAPIEKTISKAKGQPREPQVCTLPPSREEMTKNQVSLSCAVKGFYPSDIAVEWESNGQPENNYKTTPPVLDSDGSFFLVSKLTVDKSRWQQGNVFSCSVMHEALHNRFTQKSLSLSPGK
- EC50 (read off the curve) [1]: ~0.4 nM
- Kd (mouse PDL1): ~11.1 µM
- Kd [2]: 0.412 nM
- EC50 (read off the curve) [3]: ~0.2 nM
- Kd [4]: 0.212 nM

B2: Db11-21, heterodimeric (knob/hole) anti-CLDN 18.2/anti-PD-L1 bispecific antibody (bispecific antibody)
chain 1: not shown
chain 2: EIVLTQSPGTLSLSPGERATLSCRASQRVSSSYLAWYQQKPGQAPRLLIYDASSRATGIPDRFSGSGSGTDFTLTISRLEPEDFAVYYCQQYGSLPWTFGQGTKVEIKRSGGGGEVQLVESGGGLVQPGGSLRLSCAVSGYTFSMNWVRQAPGKGLEWVAWINMYTGEPTYADDFKGRFTISRDDSKNTLYLQMNSLRAEDTAVYYCARLYNGNSLDYWGQGTLVTVSSGGGGSEPKSSDKTHTCPPCPAPELLGGPSVFLFPPKPKDTLMISRTPEVTCVVVDVSHEDPEVKFNWYVDGVEVHNAKTKPREEQYNSTYRVVSVLTVLHQDWLNGKEYKCKVSNKALPAPIEKTISKAKGQPREPQVCTLPPSREEMTKNQVSLSCAVKGFYPSDIAVEWESNGQPENNYKTTPPVLDSDGSFFLVSKLTVDKSRWQQGNVFSCSVMHEALHNRFTQKSLSLSPGK
notes: Db11: 5C9ob VL-L1-durvalumab VH-L2-knob Fc; Db21: durvalumab VL-L3-5C9ob VH-L4-hole Fc; also called Db11/Db21
- Kd [5]: 0.378 nM
- Kd [6]: 0.104 nM

B3: 9O36-oae with LC55E, phage-displayed Fab (Fab, V domains shown)
VH: EVQLVESGGGLVQPGGSLRLSCAVSGYTFSMNWVRQAPGKGLEWVAWINMYTGEPTYADDFKGRFTISRDDSKNTLYLQMNSLRAEDTAVYYCARLYRGNSLDYWGQGTLVTVSS
VL: DIQMTQSPSSLSASVGDRVTITCKSSQSLLNWGNQKSYLTWYQQKPGKAPKLLIYWASTLESGVPSRFSGSGSGTDYTLTISSLQPEDFATYYCQNAYFFPFTFGQGTKVEIK
notes: built from 9O36-oae with light chain residue 55 (Kabat; the sixth residue of VL CDR2 WASTLMS) mutated back to Glu; also called 9O36 oaeL2
- binding affinity [7]: 0.059

B4: 9O41, phage-displayed Fab (Fab, V domains shown)
VH: EVQLVESGGGLVQPGGSLRLSCAVSGYTFSMNWVRQAPGKGLEWVAWINMYTGERTYADDFKGRFTISRDDSKNTLYLQMNSLRAEDTAVYYCARLYNGNSLDYWGQGTLVTVSS
VL: DIQMTQSPSSLSASVGDRVTITCKSSQSLLNSGNIKSYLTWYQQKPGKAPKLLIYWASTLRSGVPSRFSGSGSGTDYTLTISSLQPEDFATYYCQNAYSFPFTFGQGTKVEIK
- binding affinity [7]: 0.167

B5: 5C9oap-oaeE (5C9oap-oae with LC55E), phage-displayed Fab (Fab, V domains shown)
VH: EVQLVESGGGLVQPGGSLRLSCAVSGYTFSMNWVRQAPGKGLEWVAWINMYTGERTYADDFKGRFTISRDDSKNTLYLQMNSLRAEDTAVYYCARLYRGNSLDYWGQGTLVTVSS
VL: DIQMTQSPSSLSASVGDRVTITCKSSQSLLNWGNQKSYLTWYQQKPGKAPKLLIYWASTLESGVPSRFSGSGSGTDYTLTISSLQPEDFATYYCQNAYFFPFTFGQGTKVEIK
notes: also called 5C9oap oaeL2; 5C9oap with 5C9oae and L2 mutations
- IC50 (read off the curve) [8]: ~0.06 nM
- binding affinity [7]: 0.0593

B6: 9O47, phage-displayed Fab (Fab, V domains shown)
VH: EVQLVESGGGLVQPGGSLRLSCAVSGYTFSMNWVRQAPGKGLEWVAWINMYTGEPIYADDFKGRFTISRDDSKNTLYLQMNSLRAEDTAVYYCARLYNGNSLDYWGQGTLVTVSS
VL: DIQMTQSPSSLSASVGDRVTITCKSSQSLLNWGNQKSYLTWYQQKPGKAPKLLIYWASTLFSGVPSRFSGSGSGTDYTLTISSLQPEDFATYYCQNAYSFPFTFGQGTKVEIK
- binding affinity [7]: 0.095
- IC50 (read off the curve) [9]: ~0.1 nM
- Kd [9]: 0.095 nM

B7: 9O45-oae with LC55E, phage-displayed Fab (Fab, V domains shown)
VH: EVQLVESGGGLVQPGGSLRLSCAVSGYTFSMNWVRQAPGKGLEWVAWINMYTGETTYADDFKGRFTISRDDSKNTLYLQMNSLRAEDTAVYYCARLYRGNSLDYWGQGTLVTVSS
VL: DIQMTQSPSSLSASVGDRVTITCKSSQSLLNWGNQKSYLTWYQQKPGKAPKLLIYWASTLESGVPSRFSGSGSGTDYTLTISSLQPEDFATYYCQNAYFFPFTFGQGTKVEIK
notes: built from 9O45-oae with light chain residue 55 (Kabat; the sixth residue of VL CDR2 WASTLYS) mutated back to Glu; also called 9O45 oaeL2
- binding affinity [7]: 0.0562

B8: 9O47-oaeE (9O47-oae with LC55E), phage-displayed Fab (Fab, V domains shown)
VH: EVQLVESGGGLVQPGGSLRLSCAVSGYTFSMNWVRQAPGKGLEWVAWINMYTGEPIYADDFKGRFTISRDDSKNTLYLQMNSLRAEDTAVYYCARLYRGNSLDYWGQGTLVTVSS
VL: DIQMTQSPSSLSASVGDRVTITCKSSQSLLNWGNQKSYLTWYQQKPGKAPKLLIYWASTLESGVPSRFSGSGSGTDYTLTISSLQPEDFATYYCQNAYFFPFTFGQGTKVEIK
notes: also called 9O47 oaeL2; 9O47 with 5C9oae and L2 mutations
- IC50 (read off the curve) [8]: ~0.06 nM
- binding affinity [7]: 0.0533

B9: 9O36, phage-displayed Fab (Fab, V domains shown)
VH: EVQLVESGGGLVQPGGSLRLSCAVSGYTFSMNWVRQAPGKGLEWVAWINMYTGEPTYADDFKGRFTISRDDSKNTLYLQMNSLRAEDTAVYYCARLYNGNSLDYWGQGTLVTVSS
VL: DIQMTQSPSSLSASVGDRVTITCKSSQSLLNWGNQKSYLTWYQQKPGKAPKLLIYWASTLMSGVPSRFSGSGSGTDYTLTISSLQPEDFATYYCQNAYSFPFTFGQGTKVEIK
- binding affinity [7]: 0.108

B10: 9O47E (9O47 with LC55E), phage-displayed Fab (Fab, V domains shown)
VH: EVQLVESGGGLVQPGGSLRLSCAVSGYTFSMNWVRQAPGKGLEWVAWINMYTGEPIYADDFKGRFTISRDDSKNTLYLQMNSLRAEDTAVYYCARLYNGNSLDYWGQGTLVTVSS
VL: DIQMTQSPSSLSASVGDRVTITCKSSQSLLNWGNQKSYLTWYQQKPGKAPKLLIYWASTLESGVPSRFSGSGSGTDYTLTISSLQPEDFATYYCQNAYSFPFTFGQGTKVEIK
notes: also called 9O47 LC55E (L2)
- binding affinity [7]: 0.141

B11: 5C9ob, phage-displayed Fab (Fab, V domains shown)
VH: EVQLVESGGGLVQPGGSLRLSCAVSGYTFSMNWVRQAPGKGLEWVAWINMYTGEPTYADDFKGRFTISRDDSKNTLYLQMNSLRAEDTAVYYCARLYNGNSLDYWGQGTLVTVSS
VL: DIQMTQSPSSLSASVGDRVTITCKSSQSLLNSGNQKSYLTWYQQKPGKAPKLLIYWASTLESGVPSRFSGSGSGTDYTLTISSLQPEDFATYYCQNAYFFPFTFGQGTKVEIK
notes: also called 5C9o with 5C9ob mutations
- binding affinity [7]: 0.221

B12: 9O24, phage-displayed Fab (Fab, V domains shown)
VH: EVQLVESGGGLVQPGGSLRLSCAVSGYTFSMNWVRQAPGKGLEWVAWINMYTGEKTYADDFKGRFTISRDDSKNTLYLQMNSLRAEDTAVYYCARLYNGNSLDYWGQGTLVTVSS
VL: DIQMTQSPSSLSASVGDRVTITCKSSQSLLNSGNWKSYLTWYQQKPGKAPKLLIYWASTLVSGVPSRFSGSGSGTDYTLTISSLQPEDFATYYCQNAYSFPFTFGQGTKVEIK
- binding affinity [7]: 0.144
- IC50 (read off the curve) [9]: ~0.2 nM

B13: 9O24-oae with LC55E, phage-displayed Fab (Fab, V domains shown)
VH: EVQLVESGGGLVQPGGSLRLSCAVSGYTFSMNWVRQAPGKGLEWVAWINMYTGEKTYADDFKGRFTISRDDSKNTLYLQMNSLRAEDTAVYYCARLYRGNSLDYWGQGTLVTVSS
VL: DIQMTQSPSSLSASVGDRVTITCKSSQSLLNSGNWKSYLTWYQQKPGKAPKLLIYWASTLESGVPSRFSGSGSGTDYTLTISSLQPEDFATYYCQNAYFFPFTFGQGTKVEIK
notes: built from 9O24-oae with light chain residue 55 (Kabat; the sixth residue of VL CDR2 WASTLVS) mutated back to Glu; also called 9O24 oaeL2
- binding affinity [7]: 0.0604

B14: 9O45, phage-displayed Fab (Fab, V domains shown)
VH: EVQLVESGGGLVQPGGSLRLSCAVSGYTFSMNWVRQAPGKGLEWVAWINMYTGETTYADDFKGRFTISRDDSKNTLYLQMNSLRAEDTAVYYCARLYNGNSLDYWGQGTLVTVSS
VL: DIQMTQSPSSLSASVGDRVTITCKSSQSLLNWGNQKSYLTWYQQKPGKAPKLLIYWASTLYSGVPSRFSGSGSGTDYTLTISSLQPEDFATYYCQNAYSFPFTFGQGTKVEIK
- binding affinity [7]: 0.104
- IC50 (read off the curve) [9]: ~0.1 nM
